# In article PMC11276676:
# Columns and labels:
# Experiment in all cases: AUC; sedimentation velocity, absorbance detection, 20 °C, 20 mM Hepes-NaOH with 1 mM TCEP, without (pH 6.79) or with (pH 6.87) 150 mM NaCl, 42,000 rpm, protein 1.30-1.53 and 2.73-5.98 µM; monomer to dimer
# [1] = biological target: wild-type Helicobacter pylori adenylosuccinate synthetase (Helicobacter pylori (reference strain 26695)) (UniProt P56137)
# [2] = biological target: Helicobacter pylori adenylosuccinate synthetase with His6-tag fused on its N-terminus (Helicobacter pylori (reference strain 26695)) (UniProt P56137)
# [3] = biological target: Helicobacter pylori adenylosuccinate synthetase with His6-tag on the C-terminus (Helicobacter pylori (reference strain 26695)) (UniProt P56137)
substance,measurement,setting,value
wild-type Helicobacter pylori adenylosuccinate synthetase (from UniProt P56137 1-411) (enzyme),stoichiometry N,[1],2
Helicobacter pylori adenylosuccinate synthetase with His6-tag fused on its N-terminus (from UniProt P56137 1-411) (enzyme),stoichiometry N,[2],2
Helicobacter pylori adenylosuccinate synthetase with His6-tag on the C-terminus (from UniProt P56137 1-411) (enzyme),stoichiometry N,[3],2
